Data as given in the supplement of paper PMC10065799, “High-throughput profiling of sequence recognition by tyrosine kinases and SH2 domains using bacterial peptide display” (eLife, 2023).

Each sequence was assayed against Hck (UniProt P08631) (assay: phosphorylation enrichment, bacterial display (enrichment ratio); higher = better substrate or ligand; peptides without Tyr show the background).
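Further: 11-residue human phosphosite peptides and single-mutation variants displayed on the E. coli surface, counted by deep sequencing, each peptide's frequency after selection divided by its frequency in the unselected input library; frequency after pTyr selection over input frequency; kinase dosed for 20-30% of maximal phosphorylation in three min.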

Hck, sequence (P08631 whole entry, looked up): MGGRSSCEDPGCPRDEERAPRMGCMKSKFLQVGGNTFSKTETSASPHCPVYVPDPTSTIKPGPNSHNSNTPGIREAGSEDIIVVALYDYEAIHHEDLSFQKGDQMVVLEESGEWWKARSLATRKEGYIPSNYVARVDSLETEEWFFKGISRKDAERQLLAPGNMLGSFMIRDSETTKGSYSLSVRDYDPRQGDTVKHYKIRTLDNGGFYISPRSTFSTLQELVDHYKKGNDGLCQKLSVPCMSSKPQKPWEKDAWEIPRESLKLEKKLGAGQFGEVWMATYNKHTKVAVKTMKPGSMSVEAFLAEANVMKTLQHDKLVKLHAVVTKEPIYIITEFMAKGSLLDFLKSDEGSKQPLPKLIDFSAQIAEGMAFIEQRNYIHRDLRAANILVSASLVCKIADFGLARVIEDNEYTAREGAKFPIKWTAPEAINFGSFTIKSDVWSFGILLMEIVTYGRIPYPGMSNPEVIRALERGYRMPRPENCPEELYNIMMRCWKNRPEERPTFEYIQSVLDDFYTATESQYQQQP

| Sequence | phosphorylation enrichment |
| --- | --- |
| ASPALYRLDLD [TRIL_Y352] | 0.617 |
| LYEDRYLLGPS [ASS1_Y87_T91P] | 4.13 |
| FGLPRYRWLTH [TSPAN12_Y143_YF] | 0.526 |
| AEQDWYHGAIP [FER_Y461] | 1.22 |
| EGNERYEGYCV [GRIA3_Y451] | 0.574 |
| QAKRKYQEASK [FES_Y156] | 0.489 |
| SDQPDYDSVAS [GIT2_Y392_N387S] | 0.594 |
| NVADHYRVFKP [ATP6V0D2_Y271_G272R_YF] | 0.418 |
| LARHMYDKEFF [MET_Y1230_D1228H_YF] | 0.399 |
| RMGNLYDIDED [GRIN2A_Y1246] | 1.25 |
| SVTCTYSPALF [TP53_Y126_N131Y_YF] | 0.695 |
| FSALDYKIFYY [WDPCP_Y210_L205F] | 0.473 |
| PSTFRYERGSR [INPPL1_Y663_P659S_YF] | 0.345 |
| RHTRSYDYTEG [FGF7_Y56_M59T] | 0.602 |
| TGQEEYSAMRD [KRAS_Y64_A59T] | 0.563 |
| NVKGIYAVGDV [GSR_Y371] | 3.55 |
| PFTRNYFVRAV [CYBA_Y87_YF] | 0.595 |

| Sequence | phosphorylation enrichment |
| --- | --- |
| SIKHKYVTALF [KCNH2_Y611_D609H_YF] | 0.419 |
| RGESFYQDTMN [RARS_Y338_R341T] | 0.429 |
| IITVHYVLEES [RYR2_Y4559_A4556T] | 0.517 |
| DRKRQYELLKL [KIF4B_Y684] | 0.488 |
| DRIVNYSRASV [ATP7A_Y1459_I1464V] | 0.45 |
| RSRSPYSPVLR [CDK13_Y399] | 0.628 |
| RKLVDYDSARH [BIN1_Y150] | 0.418 |
| ETKGDYEKILV [ANXA1_Y335] | 0.651 |
| EIPTQYEAMAS [GFAP_Y242_R239P] | 0.596 |
| DDSNPYINVKL [MTHFD1_Y52_L51P] | 0.606 |
| AHLTEYLSTHF [UQCRC1_Y219_D215H_YF] | 0.526 |
| LSGVIYVILWK [PMP22_Y153_R157W] | 0.538 |
| IVWDSYTTNKV [GNB3_Y85] | 0.528 |
| PDGVEYLKNNP [GRIN3A_Y831_D835N] | 0.664 |
| YEEDSYVERSQ [RET_Y905_K907E] | 0.498 |
| PRSRSYSSTSI [REPS2_Y462] | 0.468 |

What follows are sequences tested against Jak2 (UniProt O60674) in the same assay as above.
Jak2, sequence (O60674 whole entry, looked up): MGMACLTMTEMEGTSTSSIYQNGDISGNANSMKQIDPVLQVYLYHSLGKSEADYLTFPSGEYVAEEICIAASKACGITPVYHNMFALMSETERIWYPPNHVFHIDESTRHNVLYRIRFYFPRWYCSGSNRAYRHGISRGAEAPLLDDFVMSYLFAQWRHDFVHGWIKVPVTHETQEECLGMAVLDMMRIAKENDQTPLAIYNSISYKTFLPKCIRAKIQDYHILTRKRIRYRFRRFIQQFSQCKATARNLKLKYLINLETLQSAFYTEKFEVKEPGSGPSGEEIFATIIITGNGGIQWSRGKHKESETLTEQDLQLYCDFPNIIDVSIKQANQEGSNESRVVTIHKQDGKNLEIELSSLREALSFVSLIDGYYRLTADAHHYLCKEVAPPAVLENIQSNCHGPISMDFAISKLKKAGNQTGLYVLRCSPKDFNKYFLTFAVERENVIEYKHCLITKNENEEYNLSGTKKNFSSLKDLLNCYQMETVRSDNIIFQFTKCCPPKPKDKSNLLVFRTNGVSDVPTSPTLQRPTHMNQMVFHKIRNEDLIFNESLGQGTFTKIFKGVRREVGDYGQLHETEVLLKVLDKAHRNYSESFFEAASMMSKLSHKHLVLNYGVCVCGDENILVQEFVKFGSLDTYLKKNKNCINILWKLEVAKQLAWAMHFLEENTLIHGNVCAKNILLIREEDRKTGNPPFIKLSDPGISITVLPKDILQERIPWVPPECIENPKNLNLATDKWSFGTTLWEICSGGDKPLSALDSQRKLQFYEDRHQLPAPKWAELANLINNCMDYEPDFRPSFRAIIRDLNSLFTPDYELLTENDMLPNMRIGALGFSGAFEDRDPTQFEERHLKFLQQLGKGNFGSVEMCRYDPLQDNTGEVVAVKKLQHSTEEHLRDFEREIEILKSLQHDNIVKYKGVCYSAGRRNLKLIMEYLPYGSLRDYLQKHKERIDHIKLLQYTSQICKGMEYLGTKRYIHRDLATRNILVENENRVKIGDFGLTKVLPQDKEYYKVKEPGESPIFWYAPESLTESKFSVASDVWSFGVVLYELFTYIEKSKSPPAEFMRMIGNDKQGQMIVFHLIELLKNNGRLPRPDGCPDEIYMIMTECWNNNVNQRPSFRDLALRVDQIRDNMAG

| Sequence | phosphorylation enrichment |
| --- | --- |
| ASPALYRLDLD [TRIL_Y352] | 0.873 |
| LYEDRYLLGPS [ASS1_Y87_T91P] | 0.812 |
| FGLPRYRWLTH [TSPAN12_Y143_YF] | 0.687 |
| AEQDWYHGAIP [FER_Y461] | 0.802 |
| EGNERYEGYCV [GRIA3_Y451] | 0.944 |
| QAKRKYQEASK [FES_Y156] | 0.429 |
| SDQPDYDSVAS [GIT2_Y392_N387S] | 1.09 |
| NVADHYRVFKP [ATP6V0D2_Y271_G272R_YF] | 0.582 |
| LARHMYDKEFF [MET_Y1230_D1228H_YF] | 0.646 |
| RMGNLYDIDED [GRIN2A_Y1246] | 1.36 |
| SVTCTYSPALF [TP53_Y126_N131Y_YF] | 1.52 |
| FSALDYKIFYY [WDPCP_Y210_L205F] | 1.4 |
| PSTFRYERGSR [INPPL1_Y663_P659S_YF] | 0.459 |
| RHTRSYDYTEG [FGF7_Y56_M59T] | 0.587 |
| TGQEEYSAMRD [KRAS_Y64_A59T] | 0.821 |
| NVKGIYAVGDV [GSR_Y371] | 0.66 |
| PFTRNYFVRAV [CYBA_Y87_YF] | 0.93 |

| Sequence | phosphorylation enrichment |
| --- | --- |
| SIKHKYVTALF [KCNH2_Y611_D609H_YF] | 0.694 |
| RGESFYQDTMN [RARS_Y338_R341T] | 0.941 |
| IITVHYVLEES [RYR2_Y4559_A4556T] | 1.02 |
| DRKRQYELLKL [KIF4B_Y684] | 0.876 |
| DRIVNYSRASV [ATP7A_Y1459_I1464V] | 0.732 |
| RSRSPYSPVLR [CDK13_Y399] | 0.563 |
| RKLVDYDSARH [BIN1_Y150] | 0.792 |
| ETKGDYEKILV [ANXA1_Y335] | 1.01 |
| EIPTQYEAMAS [GFAP_Y242_R239P] | 0.802 |
| DDSNPYINVKL [MTHFD1_Y52_L51P] | 1.16 |
| AHLTEYLSTHF [UQCRC1_Y219_D215H_YF] | 0.837 |
| LSGVIYVILWK [PMP22_Y153_R157W] | 1.55 |
| IVWDSYTTNKV [GNB3_Y85] | 0.895 |
| PDGVEYLKNNP [GRIN3A_Y831_D835N] | 1.31 |
| YEEDSYVERSQ [RET_Y905_K907E] | 1.06 |
| PRSRSYSSTSI [REPS2_Y462] | 1.2 |

These sequences were tested against MERTK (UniProt Q12866) in the same assay as above.
MERTK, sequence (Q12866 whole entry, looked up): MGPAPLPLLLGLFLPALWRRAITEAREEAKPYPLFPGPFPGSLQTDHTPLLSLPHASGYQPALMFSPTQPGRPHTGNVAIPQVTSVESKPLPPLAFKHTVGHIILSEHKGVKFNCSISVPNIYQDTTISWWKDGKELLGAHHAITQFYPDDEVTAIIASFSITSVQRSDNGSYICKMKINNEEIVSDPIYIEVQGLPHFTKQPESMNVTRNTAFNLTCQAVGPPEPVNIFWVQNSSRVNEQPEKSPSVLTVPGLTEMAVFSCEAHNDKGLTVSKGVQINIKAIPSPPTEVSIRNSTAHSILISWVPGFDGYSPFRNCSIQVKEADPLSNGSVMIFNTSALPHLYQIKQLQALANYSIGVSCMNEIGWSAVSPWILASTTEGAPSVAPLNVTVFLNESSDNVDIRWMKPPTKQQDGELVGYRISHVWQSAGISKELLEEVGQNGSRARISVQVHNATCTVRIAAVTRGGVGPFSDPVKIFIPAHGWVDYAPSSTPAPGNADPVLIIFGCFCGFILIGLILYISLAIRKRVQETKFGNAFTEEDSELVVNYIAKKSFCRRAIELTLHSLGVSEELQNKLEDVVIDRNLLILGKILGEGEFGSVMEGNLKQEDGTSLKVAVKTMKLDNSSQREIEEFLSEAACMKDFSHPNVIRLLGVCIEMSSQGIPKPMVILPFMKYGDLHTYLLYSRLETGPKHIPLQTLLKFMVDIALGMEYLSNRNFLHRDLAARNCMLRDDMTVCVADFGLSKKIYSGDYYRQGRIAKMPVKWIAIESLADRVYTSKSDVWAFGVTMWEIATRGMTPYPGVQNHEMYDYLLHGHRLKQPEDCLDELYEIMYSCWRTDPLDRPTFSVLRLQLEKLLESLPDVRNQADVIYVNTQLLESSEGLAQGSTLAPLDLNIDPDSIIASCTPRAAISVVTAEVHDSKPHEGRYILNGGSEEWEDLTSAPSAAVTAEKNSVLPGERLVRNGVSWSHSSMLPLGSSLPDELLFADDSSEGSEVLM

| Sequence | phosphorylation enrichment |
| --- | --- |
| ASPALYRLDLD [TRIL_Y352] | 0.484 |
| LYEDRYLLGPS [ASS1_Y87_T91P] | 0.899 |
| FGLPRYRWLTH [TSPAN12_Y143_YF] | 0.585 |
| AEQDWYHGAIP [FER_Y461] | 0.443 |
| EGNERYEGYCV [GRIA3_Y451] | 0.418 |
| QAKRKYQEASK [FES_Y156] | 0.418 |
| SDQPDYDSVAS [GIT2_Y392_N387S] | 0.499 |
| NVADHYRVFKP [ATP6V0D2_Y271_G272R_YF] | 0.644 |
| LARHMYDKEFF [MET_Y1230_D1228H_YF] | 0.559 |
| RMGNLYDIDED [GRIN2A_Y1246] | 0.606 |
| SVTCTYSPALF [TP53_Y126_N131Y_YF] | 0.479 |
| FSALDYKIFYY [WDPCP_Y210_L205F] | 0.462 |
| PSTFRYERGSR [INPPL1_Y663_P659S_YF] | 0.366 |
| RHTRSYDYTEG [FGF7_Y56_M59T] | 0.514 |
| TGQEEYSAMRD [KRAS_Y64_A59T] | 0.475 |
| NVKGIYAVGDV [GSR_Y371] | 1.31 |
| PFTRNYFVRAV [CYBA_Y87_YF] | 0.544 |

| Sequence | phosphorylation enrichment |
| --- | --- |
| SIKHKYVTALF [KCNH2_Y611_D609H_YF] | 0.4 |
| RGESFYQDTMN [RARS_Y338_R341T] | 1.02 |
| IITVHYVLEES [RYR2_Y4559_A4556T] | 0.498 |
| DRKRQYELLKL [KIF4B_Y684] | 0.4 |
| DRIVNYSRASV [ATP7A_Y1459_I1464V] | 0.574 |
| RSRSPYSPVLR [CDK13_Y399] | 0.674 |
| RKLVDYDSARH [BIN1_Y150] | 0.57 |
| ETKGDYEKILV [ANXA1_Y335] | 0.454 |
| EIPTQYEAMAS [GFAP_Y242_R239P] | 0.445 |
| DDSNPYINVKL [MTHFD1_Y52_L51P] | 0.526 |
| AHLTEYLSTHF [UQCRC1_Y219_D215H_YF] | 0.408 |
| LSGVIYVILWK [PMP22_Y153_R157W] | 0.666 |
| IVWDSYTTNKV [GNB3_Y85] | 0.307 |
| PDGVEYLKNNP [GRIN3A_Y831_D835N] | 0.546 |
| YEEDSYVERSQ [RET_Y905_K907E] | 0.504 |
| PRSRSYSSTSI [REPS2_Y462] | 1 |

Each sequence was assayed on c-Abl (mouse) in the same assay as above.

| Sequence | phosphorylation enrichment |
| --- | --- |
| ASPALYRLDLD [TRIL_Y352] | 0.763 |
| LYEDRYLLGPS [ASS1_Y87_T91P] | 0.683 |
| FGLPRYRWLTH [TSPAN12_Y143_YF] | 0.616 |
| AEQDWYHGAIP [FER_Y461] | 0.646 |
| EGNERYEGYCV [GRIA3_Y451] | 0.761 |
| QAKRKYQEASK [FES_Y156] | 0.491 |
| SDQPDYDSVAS [GIT2_Y392_N387S] | 0.729 |
| NVADHYRVFKP [ATP6V0D2_Y271_G272R_YF] | 0.686 |
| LARHMYDKEFF [MET_Y1230_D1228H_YF] | 0.524 |
| RMGNLYDIDED [GRIN2A_Y1246] | 1.11 |
| SVTCTYSPALF [TP53_Y126_N131Y_YF] | 1.05 |
| FSALDYKIFYY [WDPCP_Y210_L205F] | 1.2 |
| PSTFRYERGSR [INPPL1_Y663_P659S_YF] | 0.628 |
| RHTRSYDYTEG [FGF7_Y56_M59T] | 0.414 |
| TGQEEYSAMRD [KRAS_Y64_A59T] | 0.642 |
| NVKGIYAVGDV [GSR_Y371] | 1.44 |
| PFTRNYFVRAV [CYBA_Y87_YF] | 0.868 |

| Sequence | phosphorylation enrichment |
| --- | --- |
| SIKHKYVTALF [KCNH2_Y611_D609H_YF] | 0.524 |
| RGESFYQDTMN [RARS_Y338_R341T] | 1.03 |
| IITVHYVLEES [RYR2_Y4559_A4556T] | 0.794 |
| DRKRQYELLKL [KIF4B_Y684] | 0.545 |
| DRIVNYSRASV [ATP7A_Y1459_I1464V] | 0.563 |
| RSRSPYSPVLR [CDK13_Y399] | 0.763 |
| RKLVDYDSARH [BIN1_Y150] | 0.916 |
| ETKGDYEKILV [ANXA1_Y335] | 0.82 |
| EIPTQYEAMAS [GFAP_Y242_R239P] | 0.615 |
| DDSNPYINVKL [MTHFD1_Y52_L51P] | 0.846 |
| AHLTEYLSTHF [UQCRC1_Y219_D215H_YF] | 0.676 |
| LSGVIYVILWK [PMP22_Y153_R157W] | 0.996 |
| IVWDSYTTNKV [GNB3_Y85] | 0.718 |
| PDGVEYLKNNP [GRIN3A_Y831_D835N] | 0.748 |
| YEEDSYVERSQ [RET_Y905_K907E] | 0.668 |
| PRSRSYSSTSI [REPS2_Y462] | 0.932 |
